Measurements as given in paper PMC5013695.

Target: 14-3-3β (UniProt Q9CQV8)
Experiment: co-IP with anti-FLAG beads, 14-3-3β blot
Details: reference: FLAG-Bmal1 wild type; sites S42

Chain of UniProt Q9CQV8 (Q9CQV8 whole entry, looked up): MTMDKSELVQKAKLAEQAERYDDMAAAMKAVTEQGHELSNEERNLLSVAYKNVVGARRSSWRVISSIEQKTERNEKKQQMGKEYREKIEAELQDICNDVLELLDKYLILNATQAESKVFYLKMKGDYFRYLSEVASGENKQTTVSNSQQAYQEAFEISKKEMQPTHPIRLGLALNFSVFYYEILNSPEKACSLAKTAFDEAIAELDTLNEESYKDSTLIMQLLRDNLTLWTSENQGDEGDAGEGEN

- binding against the reference: weaker
Substance: Bmal1 (from UniProt Q9WTL8-4) FLAG-Bmal1 S42A
